We go through twelve substances from the supplement of paper PMC5998384.

In the data set the test system is HeLa Kyoto. The data set can be described thus: melting temperature (median over replicates), in situ; higher = more thermally stable.
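Further: HeLa Kyoto cells synchronized by double thymidine or nocodazole block, proteins quantified by TMT10plex mass spectrometry, three independent biological replicates.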

Under “cell cycle stage: mitosis”, FLNC returned a melting temperature of 55 °C. For the setting “cell cycle stage: G1/S”, “MAEVPPGPSSLLPPPAPPAPAAVEPRCPFPAGAALACCSEDEEDDEEHEGGGSRSPAGGESATVAAKGHPCLRCPQPPQEQQQLNGLISPELRHLRAAASLKSKVLSVAEVAATTATPDGGPRATATKGAGVHSGERPPHSLSSNARTAVPSPVEAAAASDPAAARNGLAEGTEQEEEEEDEQVRLLSSSLTADCSLRSPSGREVEPGEDRTIRYVRYESELQMPDIMRLITKDLSEPYSIYTYRYFIHNWPQLCFLAMVGEECVGAIVCKLDMHKKMFRRGYIAMLAVDSKYRRNGIGTNLVKKAIYAMVEGDCDEVVLETEITNKSALKLYENLGFVRDKRLFRYYLNGVDALRLKLWLR [NAA30]” registered a melting temperature of 51.9 °C. In the case of “MAGSDTAPFLSQADDPDDGPVPGTPGLPGSTGNPKSEEPEVPDQEGLQRITGLSPGRSALIVAVLCYINLLNYMDRFTVAGVLPDIEQFFNIGDSSSGLIQTVFISSYMVLAPVFGYLGDRYNRKYLMCGGIAFWSLVTLGSSFIPGEHFWLLLLTRGLVGVGEASYSTIAPTLIADLFVADQRSRMLSIFYFAIPVGSGLGYIAGSKVKDMAGDWHWALRVTPGLGVVAVLLLFLVVREPPRGAVERHSDLPPLNPTSWWADLRALARNPSFVLSSLGFTAVAFVTGSLALWAPAFLLRSRVVLGETPPCLPGDSCSSSDSLIFGLITCLTGVLGVGLGVEISRRLRHSNPRADPLVCATGLLGSAPFLFLSLACARGSIVATYIFIFIGETLLSMNWAIVADILLYVVIPTRRSTAEAFQIVLSHLLGDAGSPYLIGLISDRLRRNWPPSFLSEFRALQFSLMLCAFVGALGGAAFLGTAIFIEADRRRAQLHVQGLLHEAGSTDDRIVVPQRGRSTRVPVASVLI [SPNS1]”, under “cell cycle stage: mitosis”, the melting temperature stood at 62 °C.

“MAHAHIQGGRRAKSRFVVCIMSGARSKLALFLCGCYVVALGAHTGEESVADHHEAEYYVAAVYEHPSILSLNPLALISRQEALELMNQNLDIYEQQVMTAAQKDVQIIVFPEDGIHGFNFTRTSIYPFLDFMPSPQVVRWNPCLEPHRFNDTEVLQRLSCMAIRGDMFLVANLGTKEPCHSSDPRCPKDGRYQFNTNVVFSNNGTLVDRYRKHNLYFEAAFDVPLKVDLITFDTPFAGRFGIFTCFDILFFDPAIRVLRDYKVKHVVYPTAWMNQLPLLAAIEIQKAFAVAFGINVLAANVHHPVLGMTGSGIHTPLESFWYHDMENPKSHLIIAQVAKNPVGLIGAENATGETDPSHSKFLKILSGDPYCEKDAQEVHCDEATKWNVNAPPTFHSEMMYDNFTLVPVWGKEGYLHVCSNGLCCYLLYERPTLSKELYALGVFDGLHTVHGTYYIQVCALVRCGGLGFDTCGQEITEATGIFEFHLWGNFSTSYIFPLFLTSGMTLEVPDQLGWENDHYFLRKSRLSSGLVTAALYGRLYERD [BTD]” gave a melting temperature (cell cycle stage: mitosis) of 58 °C. “MAMEGYWRFLALLGSALLVGFLSVIFALVWVLHYREGLGWDGSALEFNWHPVLMVTGFVFIQGIAIIVYRLPWTWKCSKLLMKSIHAGLNAVAAILAIISVVAVFENHNVNNIANMYSLHSWVGLIAVICYLLQLLSGFSVFLLPWAPLSLRAFLMPIHVYSGIVIFGTVIATALMGLTEKLIFSLRDPAYSTFPPEGVFVNTLGLLILVFGALIFWIVTRPQWKRPKEPNSTILHPNGGTEQGARGSMPAYSGNNMDKSDSELNSEVAARKRNLALDEAGQRSTM [CYBRD1]”: under “cell cycle stage: mitosis”, the melting temperature stood at 53.6 °C. The substance “MAPQRRAATKAPEGNGAAERRNRSSTKKDRAPREVQRLWQRPWLRTAGLGAGFVLTALLLWSSLGADDGVAEVLARRGEVVAGRFIEVPCSEDYDSHRRFEGCTPRKCGRGVTDVVITREEAERIRSVAEKGLSLGGSDGGASILDLHSGALSVGKHFVNLYRYFGDKIQNIFSEEDFRLYREVRQKVQLTIAEAFGISASSLHLTKPTFFSRINSTEARTAHDEYWHAHVDKVTYGSFDYTSLLYLSNYLEDFGGGRFMFMEEGANKTVEPRAGRVSFFTSGSENLHRVEKVHWGTRYAITIAFSCNPDHGIEDPAFP [OGFOD3]” displayed a melting temperature (cell cycle stage: mitosis) of 53.1 °C.

Consider “MARRRRRACIALFLVLLFAFGTLMGLRTLKAPDGLPALGPGLELAPFERRPEGAPAPAARAPAAPAAPPPPPPPPRTADPGGSPGPAPAEAEPAPVQSLRVYSDLHAFYYSWYGSPRREGHYIHWDHVMVPHWDPKISASYPRGRHSPPDDLGSSFYPELGPYSSRDPEVLREHMTQLKEAAIGVLVLSWYPPGMADDNGEPSDDLVPAILDTAHQYSIQVAFHIQPYKGRDDITVHDNIKYIIDTYGSHGAFYRYKNSMGKSLPLFYIYDSYLTSPEAWAHLLTPNGPHSIRNTPYDGVFIALLVEEGHTHDILAAGFDGMYTYFASNGFSFGSSHQNWKAVKNFCDANNLMFIPSVGPGYIDTSIRPWNNHNTRNRVNGKYYETALQAALTVRPEIVSITSFNEWHEGTQIEKAIPKKTPTRLYLDYLPHQPSLYLELTRRWAEHFIKEKEQWLM [MANEAL]”, for which the melting temperature (cell cycle stage: mitosis) turned out to be 54.1 °C. Take “MASRAGPRAAGTDGSDFQHRERVAMHYQMSVTLKYEIKKLIYVHLVIWLLLVAKMSVGHLRLLSHDQVAMPYQWEYPYLLSILPSLLGLLSFPRNNISYLVLSMISMGLFSIAPLIYGSMEMFPAAQQLYRHGKAYRFLFGFSAVSIMYLVLVLAVQVHAWQLYYSKKLLDSWFTSTQEKKHK [JAGN1]”: where the note is “cell cycle stage: mitosis”, the melting temperature amounted to 54.8 °C. Consider “MATETVELHKLKLAELKQECLARGLETKGIKQDLIHRLQAYLEEHAEEEANEEDVLGDETEEEETKPIELPVKEEEPPEKTVDVAAEKKVVKITSEIPQTERMQKRAERFNVPVSLESKKAARAARFGISSVPTKGLSSDNKPMVNLDKLKERAQRFGLNVSSISRKSEDDEKLKKRKERFGIVTSSAGTGTTEDTEAKKRKRAERFGIA [SARNP]”, for which the melting temperature (cell cycle stage: G1/S) turned out to be 57.9 °C and the melting temperature (cell cycle stage: mitosis) is 54.3 °C. The like results for “MDEESLESALQTYRAQLQQVELALGAGLDSSEQADLRQLQGDLKELIELTEASLVSVRKSSLLAALDEERPGRQEDAEYQAFREAITEAVEAPAAARGSGSETVPKAEAGPESAAGGQEEEEGEDEEELSGTKVSAPYYSSWGTLEYHNAMVVGTEEAEDGSAGVRVLYLYPTHKSLKPCPFFLEGKCRFKENCRFSHGQVVSLDELRPFQDPDLSSLQAGSACLAKHQDGLWHAARITDVDNGYYTVKFDSLLLREAVVEGDGILPPLRTEATESDSDSDGTGDSSYARVVGSDAVDSAQSSALCPSLAVVGSDAVDSGTCSSAFAGWEVHTRGIGSRLLTKMGYEFGKGLGRHAEGRVEPIHAVVLPRGKSLDQCVETLQKQTRVGKAGTNKPPRCRGRGARPGGRPAPRNVFDFLNEKLQGQAPGALEAGAAPAGRRSKDMYHASKSAKRALSLRLFQTEEKIERTQRDIRSIQEALARNAGRHSVASAQLQEKLAGAQRQLGQLRAQEAGLQQEQRKADTHKKMTEF [ZGPAT]” were, in that order, 47.5 °C and 49.3 °C. As for “MDHSHHMGMSYMDSNSTMQPSHHHPTTSASHSHGGGDSSMMMMPMTFYFGFKNVELLFSGLVINTAGEMAGAFVAVFLLAMFYEGLKIARESLLRKSQVSIRYNSMPVPGPNGTILMETHKTVGQQMLSFPHLLQTVLHIIQVVISYFLMLIFMTYNGYLCIAVAAGAGTGYFLFSWKKAVVVDITEHCH [SLC31A1]”, the melting temperature runs as follows: (cell cycle stage: G1/S) 56.5 °C; (cell cycle stage: mitosis) 54.9 °C. The like results for “MEMSGLSFSEMEGCRNLLGLLDNDEIMALCDTVTNRLVQPQDRQDAVHAILAYSQSAEELLRRRKVHREVIFKYLATQGIVIPPATEKHNLIQHAKDYWQKQPQLKLKETPEPVTKTEDIHLFQQQVKEDKKAEKVDFRRLGEEFCHWFFGLLNSQNPFLGPPQDEWGPQHFWHDVKLRFYYNTSEQNVMDYHGAEIVSLRLLSLVKEEFLFLSPNLDSHGLKCASSPHGLVMVGVAGTVHRGNTCLGIFEQIFGLIRCPFVENTWKIKFINLKIMGESSLAPGTLPKPSVKFEQSDLEAFYNVITVCGTNEVRHNVKQASDSGTGDQV [C3ORF38]” were, in that order, 50.4 °C and 50.9 °C.
